Laboratory results published in paper PMC10397247.

Key:
Test in all cases: two-hybrid library CCmax;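 further: natural log of median RNA to DNA barcode read ratio; higher means stronger binding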
[1] = molecular target: T1, 4H317-AA; conditions: mean of both orientations
T1 chain: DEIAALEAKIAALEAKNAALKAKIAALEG

[2] = molecular target: T2, 4H780-AA; conditions: mean of both orientations
T2 chain: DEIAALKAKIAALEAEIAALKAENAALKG

[3] = molecular target: T3, 4H794-AA; conditions: mean of both orientations
T3 chain: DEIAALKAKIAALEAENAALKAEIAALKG

[4] = molecular target: T4, Q7-AA; conditions: mean of both orientations
T4 chain: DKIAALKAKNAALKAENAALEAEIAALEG

[5] = molecular target: T5, 4H2505-AA; conditions: mean of both orientations
T5 chain: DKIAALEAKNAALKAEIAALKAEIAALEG

[6] = molecular target: T6, 4H993-AA; conditions: mean of both orientations
T6 chain: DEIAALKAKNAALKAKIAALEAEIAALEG

[7] = molecular target: T7, 4H605-AA; conditions: mean of both orientations
T7 chain: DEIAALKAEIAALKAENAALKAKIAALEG

[8] = molecular target: T8, 4H1552-AA; conditions: mean of both orientations
T8 chain: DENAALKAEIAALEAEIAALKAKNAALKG

[9] = molecular target: T9, 4H3606-AA; conditions: mean of both orientations
T9 chain: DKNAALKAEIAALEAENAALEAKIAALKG

[10] = molecular target: T10, 4H3655-AA; conditions: mean of both orientations
T10 chain: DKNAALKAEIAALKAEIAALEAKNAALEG

[11] = molecular target: T11, 4H2883-AA; conditions: mean of both orientations
T11 chain: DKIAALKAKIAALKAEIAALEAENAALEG

[12] = molecular target: T12, 4H2466-AA; conditions: mean of both orientations
T12 chain: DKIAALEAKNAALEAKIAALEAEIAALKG

[13] = molecular target: T13, 4H3718-AA; conditions: mean of both orientations
T13 chain: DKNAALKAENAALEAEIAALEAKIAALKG

[14] = molecular target: T14, 4H1401-AA; conditions: mean of both orientations
T14 chain: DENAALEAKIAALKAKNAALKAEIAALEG

[15] = molecular target: T15, 4H3844-AA
T15 chain: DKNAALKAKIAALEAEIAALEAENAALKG

[16] = molecular target: T16, 4H1867-AA; conditions: mean of both orientations
T16 chain: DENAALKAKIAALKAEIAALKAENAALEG

[17] = molecular target: T17, 4H2949-AA; conditions: mean of both orientations
T17 chain: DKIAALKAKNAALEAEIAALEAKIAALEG

[18] = molecular target: T18, 4H335-AA; conditions: mean of both orientations
T18 chain: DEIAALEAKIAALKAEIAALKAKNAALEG

[19] = molecular target: T19, 4H48-AA; conditions: mean of both orientations
T19 chain: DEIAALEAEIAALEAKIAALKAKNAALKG

[20] = molecular target: T20, 4H2354-AA; conditions: mean of both orientations
T20 chain: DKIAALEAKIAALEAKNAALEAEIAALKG

[21] = molecular target: T21, 4H2277-AA; conditions: mean of both orientations
T21 chain: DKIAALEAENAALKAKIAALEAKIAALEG

[22] = molecular target: T22, 4H2944-AA; conditions: mean of both orientations
T22 chain: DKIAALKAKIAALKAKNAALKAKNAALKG

[23] = molecular target: T23, 4H3427-AA; conditions: mean of both orientations
T23 chain: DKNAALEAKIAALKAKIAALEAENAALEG

[24] = molecular target: T24, 4H566-AA; conditions: mean of both orientations
T24 chain: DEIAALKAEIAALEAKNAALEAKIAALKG

[25] = molecular target: T25, 4H2393-AA; conditions: mean of both orientations
T25 chain: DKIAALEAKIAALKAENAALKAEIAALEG

[26] = molecular target: T26, 4H2642-AA; conditions: mean of both orientations
T26 chain: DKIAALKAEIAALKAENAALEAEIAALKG

[27] = molecular target: T27, 4H906-AA; conditions: mean of both orientations
T27 chain: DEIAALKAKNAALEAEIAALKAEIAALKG

[28] = molecular target: T28, 4H3921-AA; conditions: mean of both orientations
T28 chain: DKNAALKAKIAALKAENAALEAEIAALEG

[29] = molecular target: T29, 4H2575-AA; conditions: mean of both orientations
T29 chain: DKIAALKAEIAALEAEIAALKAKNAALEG

[30] = molecular target: T30, 4H881-AA; conditions: mean of both orientations
T30 chain: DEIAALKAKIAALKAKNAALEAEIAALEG

[31] = molecular target: T31, 4H1513-AA; conditions: mean of both orientations
T31 chain: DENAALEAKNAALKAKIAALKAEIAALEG

[32] = molecular target: T32, 4H678-AA
T32 chain: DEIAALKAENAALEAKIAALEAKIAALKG

[33] = molecular target: T33, 4H3343-AA; conditions: mean of both orientations
T33 chain: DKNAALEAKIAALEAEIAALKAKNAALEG

[34] = molecular target: T34, 4H429-AA; conditions: mean of both orientations
T34 chain: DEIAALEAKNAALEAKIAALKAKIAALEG

[35] = molecular target: T35, Q8-AA; conditions: mean of both orientations
T35 chain: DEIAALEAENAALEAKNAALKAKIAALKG

[36] = molecular target: T36, 4H2165-AA; conditions: mean of both orientations
T36 chain: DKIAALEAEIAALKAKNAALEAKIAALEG

[37] = molecular target: T37, 4H2190-AA; conditions: mean of both orientations
T37 chain: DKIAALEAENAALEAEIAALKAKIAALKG

[38] = molecular target: T38, 4H2729-AA; conditions: mean of both orientations
T38 chain: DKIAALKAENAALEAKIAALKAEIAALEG

[39] = molecular target: T39, 4H234-AA; conditions: mean of both orientations
T39 chain: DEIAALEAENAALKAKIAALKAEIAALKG

[40] = molecular target: T40, 4H2754-AA; conditions: mean of both orientations
T40 chain: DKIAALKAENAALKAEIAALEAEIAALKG

[41] = molecular target: T41, 4H717-AA; conditions: mean of both orientations
T41 chain: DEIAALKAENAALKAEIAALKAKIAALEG

[42] = molecular target: T42, 4H454-AA; conditions: mean of both orientations
T42 chain: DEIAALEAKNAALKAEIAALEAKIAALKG

[43] = molecular target: T43, 4H2078-AA; conditions: mean of both orientations
T43 chain: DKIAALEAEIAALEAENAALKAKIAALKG

[44] = molecular target: T44, 4H2837-AA; conditions: mean of both orientations
T44 chain: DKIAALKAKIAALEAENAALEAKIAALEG

[45] = molecular target: T45, 4H3627-AA; conditions: mean of both orientations
T45 chain: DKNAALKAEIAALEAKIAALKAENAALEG

[46] = molecular target: T46, 4H1352-AA
T46 chain: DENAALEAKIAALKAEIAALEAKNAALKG

[47] = molecular target: T47, 4H342-AA; conditions: mean of both orientations
T47 chain: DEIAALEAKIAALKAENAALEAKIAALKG

[48] = molecular target: T48, Q3-AA; conditions: mean of both orientations
T48 chain: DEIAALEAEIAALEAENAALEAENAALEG

[49] = molecular target: T49, 4H2617-AA; conditions: mean of both orientations
T49 chain: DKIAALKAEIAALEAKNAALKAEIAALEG

[50] = molecular target: T50, 4H2151-AA; conditions: mean of both orientations
T50 chain: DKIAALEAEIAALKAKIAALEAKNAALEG

[51] = molecular target: T51, 4H1636-AA; conditions: mean of both orientations
T51 chain: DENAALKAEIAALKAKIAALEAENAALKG

[52] = molecular target: T52, 4H3112-AA; conditions: mean of both orientations
T52 chain: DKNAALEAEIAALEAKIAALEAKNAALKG

interaction score [1]: -0.919
interaction score [2]: -1.6
interaction score [3]: -1.64
interaction score [4]: -1.38
interaction score [5]: -0.788
interaction score [6]: -0.427
interaction score [7]: -1.5
interaction score [8]: 1.47
interaction score [9]: -0.743
interaction score [10]: 0.863
interaction score [11]: 0.183
interaction score [12]: -1.34
interaction score [13]: 0.714
interaction score [14]: -1.64
interaction score [15]: 1.93
interaction score [16]: 0.645
interaction score [17]: -0.999
interaction score [18]: 0.334
interaction score [19]: -0.096
interaction score [20]: -1.74
interaction score [21]: -1.27
interaction score [22]: -0.752
interaction score [23]: 0.842
interaction score [24]: -1.51
interaction score [25]: -1.01
interaction score [26]: -1.13
interaction score [27]: -1.39
interaction score [28]: -1.28
interaction score [29]: 1.45
interaction score [30]: -0.885
interaction score [31]: -0.469
interaction score [32]: -0.653
interaction score [33]: -0.188
interaction score [34]: -0.813
interaction score [35]: -1.22
interaction score [36]: -1.51
interaction score [37]: -1.16
interaction score [38]: 0.0997
interaction score [39]: -1.3
interaction score [40]: -0.982
interaction score [41]: -1.46
interaction score [42]: 1.39
interaction score [43]: -1.18
interaction score [44]: -0.514
interaction score [45]: 2.33
interaction score [46]: 1.38
interaction score [47]: 1.49
interaction score [48]: -0.583
interaction score [49]: 0.197
interaction score [50]: -0.65
interaction score [51]: -1.13
interaction score [52]: 1.11
Binder: DENAALEAKIAALKAEIAALEAKNAALKG [4H1352-AA]
